This note sets out measurements from patent US20250243277A1 (AVACTA LIFE SCIENCES, published 2025).

Sequences and labels used below:
B1: Clone 111 (designed binder)
chain: MIPGGLSEAKPATPEIQEIVDKVKPQLEEKTGETYGKLEAVQYKTQVDIQDRLGGFIGTNYYIKVRAGDNKYMHLKVFKSLHFYRGILYREDLVLTGYQVDKNKDDELTGF
notes: His-tagged
B2: Clone 80 D82A (designed binder)
chain: MIPGGLSEAKPATPEIQEIVDKVKPQLEEKTGETYGKLEAVQYKTQVVRRKHFPQWPGTNYYIKVRAGDNKYMHLKVFKSLALQPREVFQEDLVLTGYQVDKNKDDELTGF
notes: alanine mutant of Clone 80 made in E. coli
B3: Clone 80 L83A (designed binder)
chain: B2 chain with A82D, L83A
notes: as for B2
B4: Clone 80 P57A (designed binder)
chain: B2 chain with P57A, A82D
notes: as for B2
B5: Clone 80 P85A (designed binder)
chain: B2 chain with A82D, P85A
notes: as for B2
B6: Clone 80 R50A (designed binder)
chain: B2 chain with R50A, A82D
notes: as for B2
B7: Clone 80 F53A (designed binder)
chain: B2 chain with F53A, A82D
notes: as for B2
B8: Clone 80 Q55A (designed binder)
chain: B2 chain with Q55A, A82D
notes: as for B2
B9: Clone 80 P54A (designed binder)
chain: B2 chain with P54A, A82D
notes: as for B2
B10: Clone 80 H52A (designed binder)
chain: B2 chain with H52A, A82D
notes: as for B2
B11: Clone 80 F89A (designed binder)
chain: B2 chain with A82D, F89A
notes: as for B2
B12: Clone 80 Q84A (designed binder)
chain: B2 chain with A82D, Q84A
notes: as for B2
B13: Clone 80 W56A (designed binder)
chain: B2 chain with W56A, A82D
notes: as for B2
B14: Clone 78 (designed binder)
chain: MIPGGLSEAKPATPEIQEIVDKVKPQLEEKTGETYGKLEAVQYKTQVVDQGWWENWAGTNYYIKVRAGDNKYMHLKVFKSLIWENNLRIHEDLVLTGYQVDKNKDDELTGF
notes: His-tagged
B15: Clone 91 (designed binder)
chain: MIPGGLSEAKPATPEIQEIVDKVKPQLEEKTGETYGKLEAVQYKTQVVNQEHFRRFIGTNYYIKVRAGDNKYMHLKVFKSLNPWLHPQDFEDLVLTGYQVDKNKDDELTGF
notes: His-tagged
B16: Clone 87 (designed binder)
chain: MIPGGLSEAKPATPEIQEIVDKVKPQLEEKTGETYGKLEAVQYKTQVVKRLHLPQYPGTNYYIKVRAGDNKYMHLKVFKSLGNIEPITDLEDLVLTGYQVDKNKDDELTGF
notes: His-tagged
B17: Clone 93 (designed binder)
chain: MIPGGLSEAKPATPEIQEIVDKVKPQLEEKTGETYGKLEAVQYKTQVDQWGVDLVYTGTNYYIKVRAGDNKYMHLKVFKSLIVKRAVILWEDLVLTGYQVDKNKDDELTGF
notes: His-tagged
B18: Clone 83 (designed binder)
chain: MIPGGLSEAKPATPEIQEIVDKVKPQLEEKTGETYGKLEAVQYKTQVVIYHELWNFYGTNYYIKVRAGDNKYMHLKVFKSLDNNGDGNWQEDLVLTGYQVDKNKDDELTGF
notes: His-tagged
B19: Clone 92 (designed binder)
chain: MIPGGLSEAKPATPEIQEIVDKVKPQLEEKTGETYGKLEAVQYKTQVDIDDDLWSGTNYYIKVRAGDNKYMHLKVFKSLILWPTKPEREDLVLTGYQVDKNKDDELTGF
notes: His-tagged
B20: Clone 85 (designed binder)
chain: MIPGGLSEAKPATPEIQEIVDKVKPQLEEKTGETYGKLEAVQYKTQVVNDGKSLVLAGTNYYIKVRAGDNKYMHLKVFKSLRLWDDRVSGEDLVLTGYQVDKNKDDELTGF
notes: His-tagged
B21: Clone 76 (designed binder)
chain: MIPGGLSEAKPATPEIQEIVDKVKPQLEEKTGETYGKLEAVQYKTQVVHDFTIRYPWGTNYYIKVRAGDNKYMHLKVFKSLEYHVTKRDQEDLVLTGYQVDKNKDDELTGF
notes: His-tagged
B22: Clone 74 (designed binder)
chain: MIPGGLSEAKPATPEIQEIVDKVKPQLEEKTGETYGKLEAVQYKTQVVRRWELWSFQGTNYYIKVRAGDNKYMHLKVFKSLWQEHTDSVEEDLVLTGYQVDKNKDDELTGF
notes: His-tagged
B23: Clone 97 (designed binder)
chain: MIPGGLSEAKPATPEIQEIVDKVKPQLEEKTGETYGKLEAVQYKTQVDELDDAVKYWGTNYYIKVRAGDNKYMHLKVFKSLWWKTISADFEDLVLTGYQVDKNKDDELTGF
notes: His-tagged
B24: Clone 72 (designed binder)
chain: MIPGGLSEAKPATPEIQEIVDKVKPQLEEKTGETYGKLEAVQYKTQVVIHEPEIWWYGTNYYIKVRAGDNKYMHLKVFKSLHKADRQKEREDLVLTGYQVDKNKDDELTGF
notes: His-tagged
B25: Clone 73 (designed binder)
chain: MIPGGLSEAKPATPEIQEIVDKVKPQLEEKTGETYGKLEAVQYKTQVVDWGWGIPWVGTNYYIKVRAGDNKYMHLKVFKSLWLYGVKRLPEDLVLTGYQVDKNKDDELTGF
notes: His-tagged
B26: Clone 94 (designed binder)
chain: MIPGGLSEAKPATPEIQEIVDKVKPQLEEKTGETYGKLEAVQYKTQVDKVYLVWAWTGTNYYIKVRAGDNKYMHLKVFKSLFQKGSNKPEEDLVLTGYQVDKNKDDELTGF
notes: His-tagged
B27: Clone 8 (designed binder)
chain: MIPGGLSEAKPATPEIQEIVDKVKPQLEEKTGETYGKLEAVQYKTQVVPLPDPIDWVGTNYYIKVRAGDNKYMHLKVFKSLHIHLNQIYREDLVLTGYQVDKNKDDELTGF
notes: His-tagged
B28: Clone 75 (designed binder)
chain: MIPGGLSEAKPATPEIQEIVDKVKPQLEEKTGETYGKLEAVQYKTQVVINQHENFKQGTNYYIKVRAGDNKYMHLKVFKSLHLFHGLWYIEDLVLTGYQVDKNKDDELTGF
notes: His-tagged
B29: Clone 90 (designed binder)
chain: MIPGGLSEAKPATPEIQEIVDKVKPQLEEKTGETYGKLEAVQYKTQVVLGWWFGINQGTNYYIKVRAGDNKYMHLKVFKSLAHLQYEWGGEDLVLTGYQVDKNKDDELTGF
notes: His-tagged
B30: Clone 98 (designed binder)
chain: MIPGGLSEAKPATPEIQEIVDKVKPQLEEKTGETYGKLEAVQYKTQVDWAIWRDKKVGTNYYIKVRAGDNKYMHLKVFKSLPIFEIVREGEDLVLTGYQVDKNKDDELTGF
notes: His-tagged
B31: Clone 88 (designed binder)
chain: MIPGGLSEAKPATPEIQEIVDKVKPQLEEKTGETYGKLEAVQYKTQVVAVHAPQYAPGTNYYIKVRAGDNKYMHLKVFKSLWSEKVAVFPEDLVLTGYQVDKNKDDELTGF
notes: His-tagged
B32: Clone 99 (designed binder)
chain: MIPGGLSEAKPATPEIQEIVDKVKPQLEEKTGETYGKLEAVQYKTQVDTWGERLHYPGTNYYIKVRAGDNKYMHLKVFKSLWHKPKDNIIEDLVLTGYQVDKNKDDELTGF
notes: His-tagged

Changes are numbered by the printed parent chain.

T1 sequence (Q9NZQ7 19-239 limits assumed): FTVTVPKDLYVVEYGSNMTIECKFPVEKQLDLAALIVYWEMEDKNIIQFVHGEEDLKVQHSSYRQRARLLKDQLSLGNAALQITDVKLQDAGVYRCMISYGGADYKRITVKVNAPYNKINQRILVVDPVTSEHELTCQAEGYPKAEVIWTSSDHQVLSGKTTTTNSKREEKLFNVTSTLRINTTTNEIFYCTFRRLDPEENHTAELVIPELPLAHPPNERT

The first test addresses T1, human PD-L1-Fc (R&D Systems) (human, UniProt Q9NZQ7 19-239).
T1 construct: Bought from R&D Systems; Biotinylated in-house for the phage selection; also called huPD-L1-Fc; human PD-L1-Fc antigen; not shown: Fc part of the bought fusion
Description: SPR (Biacore T200): human PD-L1-Fc amine-coupled on a CM5 chip, Affimer monomer titrated as analyte, 1:1 Langmuir fit. Here is the method:
BIACORE™ T200 binding kinetic analysis was performed on monomer AFFIMER® clones with running buffer HBS-EP+ (Cytiva) and a series S sensor CM5 chip immobilized with human PD-L1-Fc (R&D Systems) in 10 mM Sodium acetate pH4.0 μsing amine coupling reagents (Cytiva). A concentration titration of AFFIMER® monomer was run as analyte with an association time of 150 seconds, followed by a dissociation time of 300 seconds at a flow rate of 30 μl/min. For Clone 80, the association time was increased to 500 seconds and 1000 seconds dissociation time. The human PD-L1-Fc immobilized surface was regenerated with 3-3.5 mM NaOH solution (Cytiva) for 20-30 seconds at 20 μl/min flow rate. The kinetic data was blank subtracted and fit to a 1:1 Langmuir binding model (BIAcore evaluation software; Cytiva) to calculate an apparent KD value.
Background: Surface plasmon resonance follows binding to a sensor surface in real time, without labels.
Usually Kd stands for the concentration at which binding is half-saturated. Read a high Kd as weaker binding. The koff is a measure of how fast the partners let go of each other. A word on the kon: it is the rate constant with which the complex forms. A high value points to faster complex formation. Turning to B1, the Kd was found to be 44 nM, the koff came out at 0.0457 s⁻¹ and the kon turned out to be 1.04e+06 M⁻¹ s⁻¹.

Another test deals with T1, human PD-L1-Fc (R&D Systems). Nature of the test: SPR (Biacore 8K), binding to PD-L1-Fc.
On to B2, for which the affinity, expressed as Kd, was 5.08 nM.
In turn, B3 displayed a Kd of 1.48 nM.
Same read-out and setting: as for B4, the figure is 8.91 nM; as for B5, 2.53 nM.
Take B6: the binding result is on record as “no binding”.
Regarding B7, the binding result is given as “no binding”.
B8 gave a Kd of 1.69 nM. This lies in the single-digit nanomolar range.
B9 returned a Kd of 0.93 nM.
For the molecule B10, binding was characterised by a dissociation constant (Kd) of 38 nM. This Kd is about 41-fold higher than that of the molecule before.
Turning to B11, the Kd was 2.61 nM.
On to B12, for which the Kd came out at 0.61 nM.
For B13, the binding result was “no binding”.

A further test shares this target. Description: soluble Affimer ELISA. (In an ELISA, binding on a coated surface is turned into a signal by an enzyme label.)
As for B14, the binding result is “binds”.
Still for that read-out and setting: as for B15, the entry is “binds”; as for B16, “binds”; as for B17, “binds”.
The same measure, in the same setting: the result for B18 reads “binds”; that for B19, “binds”; that for B20, “binds”.
For B21, the binding result is “binds”.
Take B22: the binding result was “binds”.
Same read-out and setting: as for B23, the entry is “binds”; as for B24, “binds”; as for B25, “binds”.
With B26, the binding result is “binds”.
The same measure, in the same setting: the result for B27 reads “binds”.
Still for that read-out and setting: as for B28, the entry is “binds”; as for B29, “binds”; as for B30, “binds”.
The same measure, in the same setting: the result for B31 reads “binds”; that for B32, “binds”.
